Laboratory results from PMC7137648, “Molecular and Cellular Interactions of Scavenger Receptor SR-F1 With Complement C1q Provide Insights Into Its Role in the Clearance of Apoptotic Cells” (Frontiers in Immunology, 2020).

B1: SR-F1(20-421), recombinant soluble SR-F1 ectodomain (domain or fragment, human)
chain: SELDPKGQHVCVASSPSAELQCCAGWRQKDQECTIPICEGPDACQKDEVCVKPGLCRCKPGFFGAHCSSRCPGQYWGPDCRESCPCHPHGQCEPATGACQCQADRWGARCEFPCACGPHGRCDPATGVCHCEPGWWSSTCRRPCQCNTAAARCEQATGACVCKPGWWGRRCSFRCNCHGSPCEQDSGRCACRPGWWGPECQQQCECVRGRCSAASGECTCPPGFRGARCELPCPAGSHGVQCAHSCGRCKHNEPCSPDTGSCESCEPGWNGTQCQQPCLPGTFGESCEQQCPHCRHGEACEPDTGHCQRCDPGWLGPRCEDPCPTGTFGEDCGSTCPTCVQGSCDTVTGDCVCSAGYWGPSCNASCPAGFHGNNCSVPCECPEGLCHPVSGSCQPGSGSRDTLIK
modifications: N-linked glycans at Asn 289, 382 and 393
notes: scavenger receptor class F member 1 (SR-F1, SREC-I, SCARF1), human, extracellular domain with EGF-like repeats 1-10; Mass 49.1 kDa by MALDI-TOF (polypeptide 44.0 kDa plus N-glycans); also called SR-F1 extracellular domain; not shown: His8, C-terminal, kept
B2: recombinant human calreticulin (CRT) (natural protein, UniProt P27797 18-417, looked up)
chain: EPAVYFKEQFLDGDGWTSRWIESKHKSDFGKFVLSSGKFYGDEEKDKGLQTSQDARFYALSASFEPFSNKGQTLVVQFTVKHEQNIDCGGGYVKLFPNSLDQTDMHGDSEYNIMFGPDICGPGTKKVHVIFNYKGKNVLINKDIRCKDDEFTHLYTLIVRPDNTYEVKIDNSQVESGSLEDDWDFLPPKKIKDPDASKPEDWDERAKIDDPTDSKPEDWDKPEHIPDPDAKKPEDWDEEMDGEWEPPVIQNPEYKGEWKPRQIDNPDYKGTWIHPEIDNPEYSPDPSIYAYDNFGVLGLDLWQVKSGTIFDNFLITNDEAYAEEFGNETWGVTKAAEKQMKDKQDEEQRLKEEEEDKKRKEEEEAEDKEDDEDKDEDEEDEEDKEEDEEEDVPGQAKDEL
notes: calreticulin, human, recombinant; MW = 49,431 g/mol used for quantification; In the endocytosis assay the protein was labelled with Alexa Fluor 568 succinimidyl ester; also called rCRT; AF568-rCRT

Key:
Conditions in all cases: both partners purified
complement protein C1q [1] = biological target: T1, complement protein C1q (human, UniProt P02745 23-245; P02746 28-253; P02747 29-245); assay: SPR; SR-F1(20-421), SR-F1(20-353) or SR-F1(20-221) injected at five increasing concentrations (multiple cycle kinetics) over covalently immobilized C1q (about 16,000 RU, CM5, amine coupling), BSA reference surface, TBS-Ca-P pH 7.4 (2 mM CaCl2), 20 μl/min, 25°C; global fit, 1:1 Langmuir model; apparent KD
T1 construct: complement C1q A-chain, human; C1q is 18 polypeptide chains assembled into 6 triple helices of A-chain, B-chain and C-chain (460 kDa); complement C1q B-chain, human; complement C1q C-chain, human; also called whole C1q; serum C1q; source: purified from human serum; copies: 6 + 6 + 6
T1 sequence (P02745 23-245, chain 1 of 3): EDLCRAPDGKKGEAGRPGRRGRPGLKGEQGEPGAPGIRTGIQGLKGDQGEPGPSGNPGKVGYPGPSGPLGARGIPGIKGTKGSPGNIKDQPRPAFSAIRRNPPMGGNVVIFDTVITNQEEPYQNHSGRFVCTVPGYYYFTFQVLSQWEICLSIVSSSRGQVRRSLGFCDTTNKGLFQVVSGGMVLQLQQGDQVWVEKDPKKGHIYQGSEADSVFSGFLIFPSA
T1 sequence (P02746 28-253, chain 2 of 3): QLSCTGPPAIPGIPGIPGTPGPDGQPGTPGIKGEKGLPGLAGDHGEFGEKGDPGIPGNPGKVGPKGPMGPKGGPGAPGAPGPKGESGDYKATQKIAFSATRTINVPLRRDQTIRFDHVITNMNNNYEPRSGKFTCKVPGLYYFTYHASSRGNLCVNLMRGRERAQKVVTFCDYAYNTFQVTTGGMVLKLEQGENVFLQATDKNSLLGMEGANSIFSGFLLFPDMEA
T1 sequence (P02747 29-245, chain 3 of 3): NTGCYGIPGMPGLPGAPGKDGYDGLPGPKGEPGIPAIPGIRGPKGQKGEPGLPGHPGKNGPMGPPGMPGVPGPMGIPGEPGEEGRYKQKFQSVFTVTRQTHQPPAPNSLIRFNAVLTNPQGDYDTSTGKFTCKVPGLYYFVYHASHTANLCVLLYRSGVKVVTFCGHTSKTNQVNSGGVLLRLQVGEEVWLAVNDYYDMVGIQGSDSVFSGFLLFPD

complement protein C1q [2] = biological target: T1, complement protein C1q; assay: SPR; N-glycosylation site mutants of SR-F1(20-421) with C1q (Figures S5A-C), n = 2; which partner was immobilised is not told in the text shown; apparent affinity
[3] = biological target: B2; assay: SPR; SR-F1(20-353) and SR-F1(20-221) fragments with CRT (Figure S7); which partner was immobilised is not told in the text shown
[4] = biological target: B1; assay: SPR; reverse configuration: soluble SR-F1(20-421) over immobilized CRT (3,320 RU); apparent KD; data not shown
[5] = biological target: B1; assay: SPR; CRT injected at five increasing concentrations (single cycle kinetics) over covalently immobilized SR-F1(20-421) (1,845 RU) in TBS-Ca-P at 30 μl/min, 25°C; global fit, two-state reaction model; apparent KD

Binder	Kd (complement protein C1q [1]) [nM]	koff (complement protein C1q [1]) [s⁻¹]	kon (complement protein C1q [1]) [M⁻¹ s⁻¹]	t1/2 (half-life of the complex, ln2/kd) (complement protein C1q [1]) [min]	Kd (complement protein C1q [2]) [nM]	binding result [3]	Kd [4] [nM]	Kd [5] [nM]
B1	186	0.00126	6840	9.17				
SR-F1(20-421) N382Q (domain or fragment, human, N-linked glycans on the two remaining sites (Asn 289, Asn 393), SR-F1 (SCARF1), human, ectodomain as m1 with Asn 382 replaced by Gln; also called SR-F1 N382Q; N382Q mutant) SELDPKGQHVCVASSPSAELQCCAGWRQKDQECTIPICEGPDACQKDEVCVKPGLCRCKPGFFGAHCSSRCPGQYWGPDCRESCPCHPHGQCEPATGACQCQADRWGARCEFPCACGPHGRCDPATGVCHCEPGWWSSTCRRPCQCNTAAARCEQATGACVCKPGWWGRRCSFRCNCHGSPCEQDSGRCACRPGWWGPECQQQCECVRGRCSAASGECTCPPGFRGARCELPCPAGSHGVQCAHSCGRCKHNEPCSPDTGSCESCEPGWNGTQCQQPCLPGTFGESCEQQCPHCRHGEACEPDTGHCQRCDPGWLGPRCEDPCPTGTFGEDCGSTCPTCVQGSCDTVTGDCVCSAGYWGPSCQASCPAGFHGNNCSVPCECPEGLCHPVSGSCQPGSGSRDTLIK					604			
SR-F1(20-421) N393Q (domain or fragment, human, N-linked glycans on the two remaining sites (Asn 289, Asn 382), SR-F1 (SCARF1), human, ectodomain as m1 with Asn 393 replaced by Gln; also called SR-F1 N393Q; N393Q mutant) SELDPKGQHVCVASSPSAELQCCAGWRQKDQECTIPICEGPDACQKDEVCVKPGLCRCKPGFFGAHCSSRCPGQYWGPDCRESCPCHPHGQCEPATGACQCQADRWGARCEFPCACGPHGRCDPATGVCHCEPGWWSSTCRRPCQCNTAAARCEQATGACVCKPGWWGRRCSFRCNCHGSPCEQDSGRCACRPGWWGPECQQQCECVRGRCSAASGECTCPPGFRGARCELPCPAGSHGVQCAHSCGRCKHNEPCSPDTGSCESCEPGWNGTQCQQPCLPGTFGESCEQQCPHCRHGEACEPDTGHCQRCDPGWLGPRCEDPCPTGTFGEDCGSTCPTCVQGSCDTVTGDCVCSAGYWGPSCNASCPAGFHGNQCSVPCECPEGLCHPVSGSCQPGSGSRDTLIK					589 ± 20			
SR-F1(20-221) (domain or fragment, human, SR-F1 (SCARF1), human, EGF-like repeats 1-5, lacks EGF-like modules 6 to 10 and the three N-glycosylation sites; construct encodes the 221 first residues, named 20-221 as secreted protein; kept here by the cloning as described; The Leu-Ile-Lys and 8 His tail is printed for the parent plasmid only; also called SR-F1(1-221); SR-F(20-221); not shown: His8, C-terminal, kept) SELDPKGQHVCVASSPSAELQCCAGWRQKDQECTIPICEGPDACQKDEVCVKPGLCRCKPGFFGAHCSSRCPGQYWGPDCRESCPCHPHGQCEPATGACQCQADRWGARCEFPCACGPHGRCDPATGVCHCEPGWWSSTCRRPCQCNTAAARCEQATGACVCKPGWWGRRCSFRCNCHGSPCEQDSGRCACRPGWWGPECQQLIK	17.7	0.00303	185000	3.82		binds		
B2							770	345 ± 8
SR-F1(20-353) (domain or fragment, human, N-linked glycan at Asn 289, SR-F1 (SCARF1), human, EGF-like repeats 1-8; kept here by the cloning as described; The Leu-Ile-Lys and 8 His tail is printed for the parent plasmid only; not shown: His8, C-terminal, kept) SELDPKGQHVCVASSPSAELQCCAGWRQKDQECTIPICEGPDACQKDEVCVKPGLCRCKPGFFGAHCSSRCPGQYWGPDCRESCPCHPHGQCEPATGACQCQADRWGARCEFPCACGPHGRCDPATGVCHCEPGWWSSTCRRPCQCNTAAARCEQATGACVCKPGWWGRRCSFRCNCHGSPCEQDSGRCACRPGWWGPECQQQCECVRGRCSAASGECTCPPGFRGARCELPCPAGSHGVQCAHSCGRCKHNEPCSPDTGSCESCEPGWNGTQCQQPCLPGTFGESCEQQCPHCRHGEACEPDTGHCQRCDPGWLGPRCEDPCPTGTFGEDCGSLIK	32.4	0.00209	70000	5.52		binds		
